Test: yeast display, Sf9 membrane polyspecificity reagent, FACS + sequencing; frameworks hold sequencing errors
Outline: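 Sorting gates, low and high (top ~1%), were placed on anti-HA fluorescence to track expression and on streptavidin fluorescence to track reagent binding. A clone's polyreactivity label is taken from the gate it came out of. The reagent was 10% biotinylated, detergent-solubilized Sf9 membrane, applied for 1 hour at 4 °C to galactose-induced yeast display cells.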

| Sequence | polyreactivity (PSR sort gate) |
| --- | --- |
| QVQLVESGGGLVQAGGSLRLSCAASGRILPLYAMGWSRQAPGKERELVATMILDGDSTYYADSVKGRFTISRDNAKNTVYLQMNSQKPEDTAVYYCNDDYTPWGRGYPYDYWGQGSQVTVSS | low polyreactivity |
| QVQLVESGGGLVQAGGSLRLSCAASGRILPSNAMGWYRQAPGKDRELVATISSSGGDTYYADSVKGRFTISRDNAKNTVYLQMKSLKPEDTAVYSCNAAGRTPSTGFDYDYWGQGTQVTVSS | low polyreactivity |
| QVQLVESGGGLVQAGGSLRLSCAASGRILPYNVMGWFRQARGKEREFVAAITGSGGDTYYADSVKGRFTISRDNAKNTVYLQMNSLKPEDTAVYYCAAAPYIGGSFGQTPGSGYWGQGTQVTVSS | low polyreactivity |
| QVQLVESGGGLVQAGGSLRLSCAASGRILPYYAMGWYRQEPGKERELVAAITGGGGSTYYADSVKGRFTISRDNAKNTVYLQMNSLKPEDTAVYYCAKPRGRASLALYRFSLYYYWGQGTQVTVSS | high polyreactivity |
| QVQLVESGGGLVQAGGSLRLSCAASGRILRGYAMGWYRQAPGKERELVAAINSGGDTYYADSVKGRFTISRDNAKNTVYLQMNSLKPEDTAVYYCASDYWGWIYLYGDHLVDYRGQGTQVTVSS | low polyreactivity |
| QVQLVESGGGLVQAGGSLRLSCAASGRILRHNAMGWYRQAPGKERELVAAITRSGGRTYYADSVKGRFTISRDNAKNTVYLQMNSLKPEDTAVYDCAAGDYGWVPYNLRGSRMNYWGQGTQVTVSS | high polyreactivity |
| QVQLVESGGGLVQAGGSLRLSCAASGRILRQYAMGWYRQEPGKERELVAAISRSGASTFYADSVKGRFTISRDNAKNTVYLPMNSLKPEYTAVYYCASKRYLKYGYWGQGTQVTVSS | high polyreactivity |
| QVQLVESGGGLVQAGGSLRLSCAASGRILRTYAMGWYRQAPGKERELVAAITRGGSTYYADSVKGRFTISRDNAKNTVYLQMNSLKPEDTAVYYCNKYKSPYITLSQYGYWGQGTQVTVSS | high polyreactivity |
| QVQLVESGGGLVQAGGSLRLSCAASGRILRYKAMGWYRQAPGKDRELVAAMSSGGSTYADSVKGRFTISRDNAKNTVYLQMNSLKPEDTAVYYCAVQSTRRGPYSWPYGYWGQGTQVTVSS | high polyreactivity |
| QVQLVESGGGLVQAGGSLRLSCAASGRILRYNAMGWYRQAPGKERELVASISGNGGSTYYADSVKGRFTISRDNAKNTVYLQMNSLKPEDTAVYYCNKYYYSSRGQKEYDYWGQGTQVTVSS | low polyreactivity |
| QVQLVESGGGLVQAGGSLRLSCAASGRILRYYAMGWYRQAPGKERELVASITSGGSTYYADSVKGRFTISRDNAKNTVYLQMNSLKQEDTAVYYCAADPVYLKKLLYYVGQAYYYWGQGTQVTVSS | high polyreactivity |
| QVQLVESGGGLVQAGGSLRLSCAASGRILSVYAMGWYRQAPGKERELDAGISKRGGRTYYADSVKGRFTISRDNAKNTVYLQMKSLTPEDTAVYYCAADYSSYWGRDYWGQGTQVTVSS | high polyreactivity |
| QVQLVESGGGLVQAGGSLRLSCAASGRILSYYAMGWYRQAPGKERELVATISASGGSTYYADSVKGRFTISRDNAKNTVYLQMNSLKPEDTAVYYCAAARVPAYYLRYFYRTTYDYWGQGTQVTVSS | high polyreactivity |
| QVQLVESGGGLVQAGGSLRLSCAASGRILTPYTMGWYRQAPGKERELVAAISKRGTSTHYADSVKGRFTISRDNAKNTVYLLMNSLKPEDTAVYYCNAVYRSSQYDYWGQGTQVTVSS | high polyreactivity |
| QVQLVESGGGLVQAGGSLRLSCAASGRILTSNAMGWSRQAPGKERELVAAISWSGGSTYYADSVKGRFTISRDNAKNTVYLQMNSLKPEDTAVYYCAAPFTTTFDYWGQGTQVTVSS | low polyreactivity |
| QVQLVESGGGLVQAGGSLRLSCAASGRILVRNAMGWYRQAPGKERELVAAIRRGTSTNYADSVKGRFTISRDNAKNTVYLQMNSLKPEDTAVYYCAVRAASPYLDGAWRRRYDYWGQGTQVTVSS | low polyreactivity |
| QVQLVESGGGLVQAGGSLRLSCAASGRILYDYDMGWYRQAPGKERELVATISRGGGTNYADSVKGRFTISRDNAKNTVYLQMNSLKPEDTAVYYCAADRWYSRYTRYGYWGQGTQVTVSS | low polyreactivity |
| QVQLVESGGGLVQAGGSLRLSCAASGRILYGYAMGWYRQAPGKERELVASIPWSGGSTYADSVKGRFTISRDNAKNTVYLQMNSLKPEDTAVYYCATRRGPKWQWLTYGYWGQGTQVTVSS | low polyreactivity |
| QVQLVESGGGLVQAGGSLRLSCAASGRILYGYTMGWYRQAPGKEREFVATITRGGSTYYADSVKGRFTISRDNAKNTVYLQMNSLKPEDTAVYYCAAELSLATPTVPWYLYNYWGQGTQVTVSS | low polyreactivity |
| QVQLVESGGGLVQAGGSLRLSCAASGRILYIYAMGWYRQAPGKERELVAAIRSSGGSTYYADSVKGRFTISRDNAKNSVYLQMNSLKPDDTAVYYCAATSRVSKSHLYGYWGQGTQVTVSS | high polyreactivity |
| QVQLVESGGGLVQAGGSLRLSCAASGRILYLYTMGWYRQAPGKERELVAAISRGGSTYYADSVKGRFTISRDNAKNTVYLQMNSLKPEDTAVYYCSADARGYQFNYWGQGTLVTVSS | high polyreactivity |
| QVQLVESGGGLVQAGGSLRLSCAASGRILYRYAMGWYRQAPGKERELVAAISYSGGSTSYADSVKGRFTISRDNAKNTVYVQMNSLKPEDTAVYYCAAAYYLLRYKKRYDYWGQGTQVTVSS | high polyreactivity |

| Sequence | polyreactivity (PSR sort gate) |
| --- | --- |
| QVQLVESGGGLVQAGGSLRLSCAASGRILYRYAMGWYRQAPGKERELVADISWSGGSRYYADSVKGRFTISRDNAKNTVYLQMNSLKPEDTAVYYCAAFRLWYSTFDYWGQGTQVTVSS | high polyreactivity |
| QVQLVESGGGLVQAGGSLRLSCAASGRILYSYAMGWYRQAPGKEREFVADIRRSGGSTYYADSVKGRFTISRDNAKNTVYLQMNSLKPEDTAVYYCAKSQSAKGGYDYWGQGTQVTVSS | high polyreactivity |
| QVQLVESGGGLVQAGGSLRLSCAASGRILYSYAMGWYRQAPGKERELVASISWSGGSTYYADSVKGRFTISRDNAKNTVYLQMNSLKPEDTAVYYCAKKYYSVYQTDVSGRYDYWGQGTQVTVSS | low polyreactivity |
| QVQLVESGGGLVQAGGSLRLSCAASGRILYSYPMGGYRQAPGKERELVASISLSGGRTYADSVKGRFTISRDNAKNTVFLQMNSLKPVDTAVYYCNARIRTSRYLWPFDYWGQGTQVTVSS | high polyreactivity |
| QVQLVESGGGLVQAGGSLRLSCAASGRILYVNTMGWYRQAPGKERELVAGITSRVGSTYYADSVKGRFTISRDNGKNTVYLQMKSLKPEYTAVYYCNARSTWRHRRDQVDFDYWGQGTQVTVSS | low polyreactivity |
| QVQLVESGGGLVQAGGSLRLSCAASGRINAMGWYRQAPGKERELVAVITLRGGSTYYADSVKGRFTISRDNAKNTVYLQMNSLKPEDTAVYYCAAVYRWPDAKYDYWGQGTQVSVSS | low polyreactivity |
| QVQLVESGGGLVQAGGSLRLSCAASGRIRPRNAMGWYRQAPGKERELVAGISSDGSTNYADSVKGRFTISRDNAKNTVYLQMNSLKQEDTAVYYCAADGVYDPNLYGYWGQGTQLTVSS | low polyreactivity |
| QVQLVESGGGLVQAGGSLRLSCAASGRISAYAMGWYRQAPGKERELVAAISSRGGRTYYADSVKGRFTISRDNAKTTVYLQMNSLKPEDTAVYYCNALRPWEFDHWGHGTQVTVSS | high polyreactivity |
| QVQLVESGGGLVQAGGSLRLSCAASGRISAYYAMGWYRQAPGKERELVAVITSGGRTNYADSVKGRFTISRDNAKNTVYLQMNSLKPEDTAVYYCAARSRVSPRYDYWGQGTQVTVSS | high polyreactivity |
| QVQLVESGGGLVQAGGSLRLSCAASGRISGFNAMGWYRQAPGKDRELVAAISYRGGSTSADSVKGRFTISRDNAKNTVYLQMNSLKPEDTAVYYCAADVRFYQYSDYDYWGQGTQVTVSS | low polyreactivity |
| QVQLVESGGGLVQAGGSLRLSCAASGRISGRNAMGWYRQAPGKERELVAVITRGDTNYADSVKGRFTISRDNAKNTVYLQMNSLKPEDTAVYYCAKEPLASGWGYDYWGQGTQVTVSS | high polyreactivity |
| QVQLVESGGGLVQAGGSLRLSCAASGRISGRYAMGWYRQAPGKERELVAAITGRGGGTFYADSVKGRFTISRDNAKNTVYLQMNSLKPEDTAVYYCNTDYGSSYNYCGQGTQVTVSS | high polyreactivity |
| QVQLVESGGGLVQAGGSLRLSCAASGRISGSYVMGWYRQAPGKESELVAGISGRGGSTYYADSVKGRFTISRDNAKNTVYLQMYSLKPEDTAVYYCAVVDRTSKGNSYYWGQGTQVTVSS | high polyreactivity |
| QVQLVESGGGLVQAGGSLRLSCAASGRISGVNAMGWYRQAPGKERELVATISGSGGRTYYADSVKGRFTISRDNAKNTVYLQMNSLKPEDTAVYYCAAGPPRADYDYWGQGTQVTVSS | low polyreactivity |
| QVQLVESGGGLVQAGGSLRLSCAASGRISKKYAMGWYRQAPGKERELVAAIRGSGGGTYYADSVKGRFTISRDNAKNTVYLQMNSLKPEDTAVYYCNAASRHSTAPITGYDSWGQGTQVTVSS | high polyreactivity |
| QVQLVESGGGLVQAGGSLRLSCAASGRISKRYTMGWYRQAPGKERELVAAITNSGGTTYYADSVKGRFTISRDNAKNTVYLQMNSLKPEDTAVYYCNKPYGAETAHREFDYWGQGTQVTVSS | low polyreactivity |
| QVQLVESGGGLVQAGGSLRLSCAASGRISRCYVMGWYRQEPGKERELVAAITWNSGSTYYADSVKGRFTISRDNAKNTVYLQMNSLKPEDTAVYYCAAVLYSRYQQYDFWGQGTQVTVSS | high polyreactivity |
| QVQLVESGGGLVQAGGSLRLSCAASGRISSGYAMGWYRKAPGKERELVAAISSIGGRTYYADSVKGRFTISRDNANNTVYLQMNSLKPEDTAVYYCNAGTYRRIGGYDYWGQGTQVTVSS | high polyreactivity |
| QVQLVESGGGLVQAGGSLRLSCAASGRISSQYAMGWYRQAPGKERELVAAISTSGDRTYYADSVKGRFTISRDTAKNTVYLEMNSLKPEDTAVYYCAKDCPYTYGRDIYEYWGQGTQVTVSS | low polyreactivity |
| QVQLVESGGGLVQAGGSLRLSCAASGRISVFNAMGWYRQAPGKERELVAAITSGGSTNYADSVKGRFTISRDNAKNTVYLQMNSLKPEDTAVYYCNADVYHSHEPHYDYWGQGTQVTVSS | low polyreactivity |
| QVQLVESGGGLVQAGGSLRLSCAASGRISVRIYAMGWYRQAPGKERELVAIIARSGGSTYYADSVKGRFTISRDNAKHTVYLPMNSLKPADTAVYYCAAGYRTRRGLGYYYWGQGTQVTVSS | high polyreactivity |

Reference: the nanobody polyreactivity screen of Harvey et al. (2022)
